Data reported in PMC5087658, “Essential role of the Dishevelled DEP domain in a Wnt-dependent human-cell-based complementation assay” (Journal of Cell Science, 2016).
Where “and” joins values, the source holds several entries; their conditions need not be identical. Equal entries are not always repeated.

How the values were obtained:
[1] = target: SNAP–FZD5 (UniProt Q13467); assay: FZD5-dependent recruitment of DEP-GFP to the plasma membrane, cells scored by fluorescence microscopy; conditions: HEK293T cells, 100 cells scored in each case, read off a plot; for other: % of cells with no FZD5 recruitment: parent: est. 12; for other: % of cells with weak FZD5 recruitment: parent: est. 36; for other: % of cells with strong FZD5 recruitment: parent: est. 52
[2] = target: the molecule itself; assay: SEC-MALS; phosphate-buffered saline, GE Superdex S-200 10/300 analytical column; unfractionated purified Lip–DEP
[3] = target: the molecule itself; assay: SEC-MALS; not shown; tetramerisation of the K446M DEP domain
[4] = target: T1, DVL2 PDZ domain (PDZ_(265-361)), wt, 15N-labelled (human, UniProt O14641 265-361, 15N-labelled); assay: NMR titration; 1H-15N correlation spectra (fast-HSQC or BEST-TROSY) of 100 µM 15N-PDZ alone or with 3x molar excess (300 µM) of DVL-C or Lip–FZD peptide; 298 K, aqueous phosphate buffer at physiological ionic strength, pH 6.7; conditions: both partners purified
T1 construct: Dishevelled 2 (DVL2), human, PDZ domain, residues 265-361; Tag was followed by the linker ENLYFQS (TEV site); also called wt 15N-PDZ; minimal PDZ domain of DVL2; source: E. coli BL21-CodonPlus(DE3)-RIL, purified (NiNTA), Lip tag cleaved with TEV protease; not shown: His6, N-terminal, cleaved; Lip, N-terminal, cleaved
T1 sequence (looked up): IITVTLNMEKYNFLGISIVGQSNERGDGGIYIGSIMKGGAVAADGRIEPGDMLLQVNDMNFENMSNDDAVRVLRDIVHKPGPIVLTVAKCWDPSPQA

SNAP–FZD5, sequence (Q13467 27-585): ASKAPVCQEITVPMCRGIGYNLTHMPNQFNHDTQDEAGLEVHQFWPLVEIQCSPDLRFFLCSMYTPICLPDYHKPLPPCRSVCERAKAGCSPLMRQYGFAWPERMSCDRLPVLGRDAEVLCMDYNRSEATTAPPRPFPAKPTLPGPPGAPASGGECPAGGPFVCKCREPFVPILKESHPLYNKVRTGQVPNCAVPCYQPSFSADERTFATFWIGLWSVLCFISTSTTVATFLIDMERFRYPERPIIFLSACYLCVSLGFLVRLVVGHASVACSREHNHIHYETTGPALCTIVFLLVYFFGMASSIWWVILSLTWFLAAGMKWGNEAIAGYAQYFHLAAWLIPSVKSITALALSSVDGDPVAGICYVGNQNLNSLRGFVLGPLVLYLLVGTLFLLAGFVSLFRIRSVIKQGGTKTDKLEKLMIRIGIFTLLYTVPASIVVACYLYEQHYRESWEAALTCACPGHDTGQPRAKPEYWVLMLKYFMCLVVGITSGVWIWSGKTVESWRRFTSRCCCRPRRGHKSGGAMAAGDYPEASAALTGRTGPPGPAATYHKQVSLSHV

With “DEP–GFP, wt (minimal DEP domain of DVL2) (from UniProt O14641) I447F” as the molecule, how does the other: % of cells with no FZD5 recruitment [1] read?
The other: % of cells with no FZD5 recruitment was 8 % of cells.

What about the other: % of cells with weak FZD5 recruitment [1] of the same molecule?
Its other: % of cells with weak FZD5 recruitment is 34 % of cells.

What about the other: % of cells with strong FZD5 recruitment [1] of the same molecule?
Its other: % of cells with strong FZD5 recruitment is 58 % of cells.

For “DEP–GFP, wt (minimal DEP domain of DVL2) (from UniProt O14641) I447M”, which other: % of cells with no FZD5 recruitment [1] is on record?
Its other: % of cells with no FZD5 recruitment is 7 % of cells.

And the other: % of cells with weak FZD5 recruitment [1]?
The other: % of cells with weak FZD5 recruitment was 41 % of cells.

What about the other: % of cells with strong FZD5 recruitment [1] of the same molecule?
Its other: % of cells with strong FZD5 recruitment is 52 % of cells.

How did the other: % of cells with no FZD5 recruitment [1] turn out when “DEP–GFP, wt (minimal DEP domain of DVL2) (from UniProt O14641) I447T” was run?
The other: % of cells with no FZD5 recruitment was 7 % of cells.

What about the other: % of cells with weak FZD5 recruitment [1] of the same molecule?
Its other: % of cells with weak FZD5 recruitment is 32 % of cells.

And the other: % of cells with strong FZD5 recruitment [1]?
Its other: % of cells with strong FZD5 recruitment is 61 % of cells.

With “DEP–GFP, wt (minimal DEP domain of DVL2) (from UniProt O14641) K446M” as the molecule, how does the other: % of cells with no FZD5 recruitment [1] read?
The other: % of cells with no FZD5 recruitment was 75 % of cells.

And the other: % of cells with weak FZD5 recruitment [1]?
The other: % of cells with weak FZD5 recruitment was 22 % of cells.

And the other: % of cells with strong FZD5 recruitment [1]?
The other: % of cells with strong FZD5 recruitment was 3 % of cells.

With “DEP–GFP, wt (minimal DEP domain of DVL2) (from UniProt O14641) L445E” as the molecule, how does the other: % of cells with no FZD5 recruitment [1] read?
Its other: % of cells with no FZD5 recruitment is 80 % of cells.

What about the other: % of cells with weak FZD5 recruitment [1] of the same molecule?
Its other: % of cells with weak FZD5 recruitment is 20 % of cells.

B1: Lip–DEP_(417-511), DVL2 DEP domain, wt (domain or fragment, human, UniProt O14641 417-511, looked up)
chain: LSVHTDMASVTKAMAAPESGLEVRDRMWLKITIPNAFLGSDVVDWLYHHVEGFPERREARKYASGLLKAGLIRHTVNKITFSEQCYYVFGDLSGG
notes: Dishevelled 2 (DVL2), human, DEP domain, residues 417-511; Between the 6xHis-Lip tag and the domain stands the linker ENLYFQS (TEV site); also called wt DEP domain; DVL2 DEP_(417-511); source: E. coli BL21-CodonPlus(DE3)-RIL, purified (NiNTA); not shown: Lip, N-terminal, kept
For B1, which “stoichiometry N” value [2] is on record?
The value was 2 and 4.

B2: Lip–DEP_(417-511) I447M (domain or fragment, human, UniProt O14641 417-511, looked up)
chain: LSVHTDMASVTKAMAAPESGLEVRDRMWLKMTIPNAFLGSDVVDWLYHHVEGFPERREARKYASGLLKAGLIRHTVNKITFSEQCYYVFGDLSGG
notes: Dishevelled 2 (DVL2), human, DEP domain, residues 417-511, with I447M; also called tetramerisation mutant; source: E. coli BL21-CodonPlus(DE3)-RIL, purified (NiNTA)
With B2 as the molecule, how does the “stoichiometry N” value [2] read?
Its value is 2.

B3: Lip–DEP_(417-511) I447T (domain or fragment, human, UniProt O14641 417-511, looked up)
chain: LSVHTDMASVTKAMAAPESGLEVRDRMWLKTTIPNAFLGSDVVDWLYHHVEGFPERREARKYASGLLKAGLIRHTVNKITFSEQCYYVFGDLSGG
notes: Dishevelled 2 (DVL2), human, DEP domain, residues 417-511, with I447T; also called tetramerisation mutant; source: E. coli BL21-CodonPlus(DE3)-RIL, purified (NiNTA)
B3 was tested. Which “stoichiometry N” value [2] did it give?
The value was 2.

B4: Lip–DEP_(417-511) I447F (domain or fragment, human, UniProt O14641 417-511, looked up)
chain: LSVHTDMASVTKAMAAPESGLEVRDRMWLKFTIPNAFLGSDVVDWLYHHVEGFPERREARKYASGLLKAGLIRHTVNKITFSEQCYYVFGDLSGG
notes: Dishevelled 2 (DVL2), human, DEP domain, residues 417-511, with I447F; also called tetramerisation mutant; source: E. coli BL21-CodonPlus(DE3)-RIL, purified (NiNTA)
B4 was tested. Which “stoichiometry N” value [2] did it give?
Its value is 2.

B5: Lip–DEP_(417-511) K446M (domain or fragment, human, UniProt O14641 417-511, looked up)
chain: LSVHTDMASVTKAMAAPESGLEVRDRMWLMITIPNAFLGSDVVDWLYHHVEGFPERREARKYASGLLKAGLIRHTVNKITFSEQCYYVFGDLSGG
notes: Dishevelled 2 (DVL2), human, DEP domain, residues 417-511, with K446M; source: E. coli BL21-CodonPlus(DE3)-RIL, purified (NiNTA)
How did the “stoichiometry N” value [3] turn out when B5 was run?
The value was 4.

B6: C-terminal peptide from Dvl1 (DVL-C) (peptide)
peptide: SEFFVDVM
notes: C-terminal peptide of Dishevelled 1 (Dvl1); Lee et al., 2015; also called DVL-C peptide; source: kindly provided by Jie Zheng (University of California, Los Angeles)
Does B6 bind [4]?
Result: binds
